Measured values reported in PMC2897128 (Nature, 2010).
Blank lines part the entries; values can stand above or below the binder they belong to.

Assays:
SEC = molecular target: the molecule itself; experiment: SEC
[1] = molecular target: T1, Sulfolobus solfataricus SRP54 (SRP54 moiety of SRP54*) (Sulfolobus solfataricus, UniProt Q97ZE7 2-432); experiment: crystal structure
T1 sequence (looked up): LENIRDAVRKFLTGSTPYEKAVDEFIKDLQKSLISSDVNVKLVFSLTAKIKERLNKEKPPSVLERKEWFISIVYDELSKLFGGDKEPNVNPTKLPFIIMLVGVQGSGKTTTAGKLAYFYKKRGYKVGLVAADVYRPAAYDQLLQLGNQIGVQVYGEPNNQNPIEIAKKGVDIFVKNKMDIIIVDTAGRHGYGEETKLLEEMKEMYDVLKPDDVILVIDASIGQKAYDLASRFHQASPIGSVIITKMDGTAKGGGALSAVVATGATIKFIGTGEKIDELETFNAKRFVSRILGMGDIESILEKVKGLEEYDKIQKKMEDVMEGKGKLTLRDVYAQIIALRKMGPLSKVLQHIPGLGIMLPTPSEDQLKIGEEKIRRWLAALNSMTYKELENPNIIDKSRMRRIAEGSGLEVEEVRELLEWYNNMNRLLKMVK

B1: SRP54-signal sequence fusion protein (SRP54*) with an 11mer linker (other, Sulfolobus solfataricus | S. cerevisiae)
chain: LENIRDAVRKFLTGSTPYEKAVDEFIKDLQKSLISSDVNVKLVFSLTAKIKERLNKEKPPSVLERKEWFISIVYDELSKLFGGDKEPNVNPTKLPFIIMLVGVQGSGKTTTAGKLAYFYKKRGYKVGLVAADVYRPAAYDQLLQLGNQIGVQVYGEPNNQNPIEIAKKGVDIFVKNKMDIIIVDTAGRHGYGEETKLLEEMKEMYDVLKPDDVILVIDASIGQKAYDLASRFHQASPIGSVIITKMDGTAKGGGALSAVVATGATIKFIGTGEKIDELETFNAKRFVSRILGMGDIESILEKVKGLEEYDKIQKKMEDVMEGKGKLTLRDVYAQIIALRKMGPLSKVLQHIPGLGIMLPTPSEDQLKIGEEKIRRWLAALNSMTYKELENPNIIDKSRMRRIAEGSGLEVEEVRELLEWYNNMNRLLKMVKARSGSGSGSGSKLIRVGIILVLLIWGTVLLLKSIPHH
- stoichiometry N (SEC): ≥ 2

- binding result [1]: binds
Binder: KLIRVGIILVLLIWGTVLLLKSIPHH [signal anchor sequence from S. cerevisiae dipeptidyl-aminopeptidase B (DPAP-B)]
